From the Human Domainome abundance scans (Beltran et al. 2025)
± gives the uncertainty stated by the source.

B1: Myocardin-related transcription factor A, residues 341 to 383; numbered along this chain, Q969V6 (parent)
chain: GALPANLDDMKVAELKQELKLRSLPVSGTKTELIERLRAYQDQ
B2: Gamma-crystallin D, residues 90 to 170; numbered along this chain, P07320 (parent)
chain: IRLYEREDYRGQMIEFTEDCSCLQDRFRFNEIHSLNVLEGSWVLYELSNYRGRQYLLMPGDYRRYQDWGATNARVGSLRRV

Variants of: B1
Assay: abundance fitness (aPCA) (normalised: wild type 0, dead -1); higher = more abundant; growth selection in yeast, the domain comes from the species named
Settings: Homo sapiens

Variant | abundance fitness
GALPANLDDMKVAELKQELKLRSLPVSGTKTELIERLRAYYDQ [Q41Y] | -0.307 ± 0.28
GALPANLDDMKVAELKQELKLRSLPVSGTKTELIERLRAYWDQ [Q41W] | 0.083 ± 0.083
GALPANLDDMKVAELKQELKLRSLPVSGTKTELIERLRAYSDQ [Q41S] | 0.081 ± 0.061
GALPANLDDMKVAELKQELKLRSLPVSGTKTELIERLRAYLDQ [Q41L] | 0.069 ± 0.066
GALPANLDDMKVAELKQELKLRSLPVSGTKTELIERLRAYPDQ [Q41P] | 0.066 ± 0.072
GALPANLDDMKVAELKQELKLRSLPVSGTKTELIERLRAYVDQ [Q41V] | 0.055 ± 0.056
GALPANLDDMKVAELKQELKLRSLPVSGTKTELIERLRAYMDQ [Q41M] | 0.107 ± 0.078
GALPANLDDMKVAELKQELKLRSLPVSGTKTELIERLRAYRDQ [Q41R] | 0.089 ± 0.06
GALPANLDDMKVAELKQELKLRSLPVSGTKTELIERLRAYKDQ [Q41K] | 0.202 ± 0.096
GALPANLDDMKVAELKQELKLRSLPVSGTKTELIERLRAYNDQ [Q41N] | 0.18 ± 0.21
GALPANLDDMKVAELKQELKLRSLPVSGTKTELIERLRAYIDQ [Q41I] | -0.021 ± 0.21
GALPANLDDMKVAELKQELKLRSLPVSGTKTELIERLRAYQDI [Q43I] | 0.042 ± 0.11
GALPANLDDMKVAELKQELKLRSLPVSGTKTELIERLRAYQDC [Q43C] | -0.037 ± 0.1
GALPANLDDMKVAELKQELKLRSLPVSGTKTELIERLRAYQDH [Q43H] | -0.01 ± 0.25
GALPANLDDMKVAELKQELKLRSLPVSGTKTELIERLRAYQDW [Q43W] | 0.208 ± 0.23
GALPANLDDMKVAELKQELKLRSLPVSGTKTELIERLRAYQDS [Q43S] | -0.029 ± 0.13
GALPANLDDMKVAELKQELKLRSLPVSGTKTELIERLRAYQDV [Q43V] | 0.334 ± 0.1

Variant | abundance fitness
GALPANLDDMKVAELKQELKLRSLPVSGTKTELIERLRAYQDR [Q43R] | 0.567 ± 0.21
GALPANLDDMKVAELKQELKLRSLPVSGTKTELIERLRAYQDT [Q43T] | 0.164 ± 0.1
GALPANLDDMKVAELKQELKLRSLPVSGTKTELIERLRAYQDE [Q43E] | 0.357 ± 0.27
GALPANLDDMKVAELKQELKLRSLPVSGTKTELIERLRAYQPQ [D42P] | 0.059 ± 0.13
GALPANLDDMKVAELKQELKLRSLPVSGTKTELIERLRAYQSQ [D42S] | -0.017 ± 0.11
GALPANLDDMKVAELKQELKLRSLPVSGTKTELIERLRAYQAQ [D42A] | 0.205 ± 0.066
GALPANLDDMKVAELKQELKLRSLPVSGTKTELIERLRAYQLQ [D42L] | -0.081 ± 0.072
GALPANLDDMKVAELKQELKLRSLPVSGTKTELIERLRAYQRQ [D42R] | -0.234 ± 0.076
GALPANLDDMKVAELKQELKLRSLPVSGTKTELIERLRAYQCQ [D42C] | 0.045 ± 0.16
GALPANLDDMKVAELKQELKLRSLPVSGTKTELIERLRAYQQQ [D42Q] | -0.087 ± 0.23
GALPANLDDMKVAELKQELKLRSLPVSGTKTELIERLRAYQKQ [D42K] | 0.022 ± 0.083
GALPANLDDMKVAELKQELKLRSLPVSGTKTELIERLRAYQTQ [D42T] | 0.037 ± 0.12
GALPANLDDMKVAELKQELKLRSLPVSGTKTELIERLRAYQNQ [D42N] | 0.186 ± 0.41
GALPANLDDMKVAELKQELKLRSLPVSGTKTELIERLRAYQIQ [D42I] | -0.538 ± 0.12
GALPANLDDMKVAELKQELKLRSLPVSGTKTELIERLRAYQHQ [D42H] | -0.23 ± 0.093
GALPANLDDMKVAELKQELKLRSLPVSGTKTELIERLRAYQEQ [D42E] | 0.137 ± 0.11
GALPANLDDMKVAELKQELKLRSLPVSGTKTELIERLRAYQWQ [D42W] | -0.31 ± 0.12

Variants of: B2
Assay: as above
Settings: Homo sapiens

Variant | abundance fitness
Y4G | -0.683 ± 0.21
Y4E | -0.881 ± 0.3
Y4W | -0.192 ± 0.15
Y4N | 0.02 ± 0.11
Y4L | -0.646 ± 0.17
Y4A | -0.472 ± 0.13
Y4H | 0.219 ± 0.44
Y4V | -0.82 ± 0.16
Y4C | 0.222 ± 0.35
Y4D | 0.074 ± 0.32
Y4R | -0.22 ± 0.11
R2T | -0.105 ± 0.19
R2V | -0.146 ± 0.3
R2L | -0.162 ± 0.33
E5H | -0.176 ± 0.3
E5W | 0.154 ± 0.1
E5P | 0.027 ± 0.099
E5F | 0.002 ± 0.13
E5D | -0.013 ± 0.12
E5G | -0.025 ± 0.07
E5Y | 0.167 ± 0.19
E5V | 0.053 ± 0.084
E5T | -0.146 ± 0.12
E5Q | -0.013 ± 0.058

Variant | abundance fitness
E5C | -0.179 ± 0.22
E5M | 0.051 ± 0.17
E5R | 0.023 ± 0.068
E5K | 0.112 ± 0.088
E5A | -0.086 ± 0.09
E5I | 0.079 ± 0.21
E5N | -0.096 ± 0.31
E5S | 0.046 ± 0.071
I1G | -0.344 ± 0.18
I1A | 0.139 ± 0.24
I1T | -0.37 ± 0.22
I1F | -0.462 ± 0.45
I1W | -1 ± 0.34
I1M | -0.021 ± 0.14
I1N | 0.12 ± 0.31
I1L | -0.1 ± 0.34
I1V | -0.094 ± 0.27
R6P | -1.02 ± 0.2
R6N | 0.153 ± 0.24
R6L | 0.012 ± 0.094
R6M | -0.042 ± 0.18
R6Y | -0.092 ± 0.26
R6G | -0.011 ± 0.07
R6V | -0.035 ± 0.1

Variant | abundance fitness
R6C | 0.069 ± 0.096
R6S | -0.01 ± 0.087
R6F | -0.262 ± 0.26
R6Q | -0.066 ± 0.14
R6T | 0.005 ± 0.11
R6D | -0.172 ± 0.23
R6A | 0.044 ± 0.094
R6H | -0.124 ± 0.27
R6I | -0.047 ± 0.21
R6K | -0.027 ± 0.17
R6E | -0.018 ± 0.13
L3F | -0.012 ± 0.43
L3P | -1 ± 0.46
L3V | 0.076 ± 0.14
L3G | -0.131 ± 0.18
L3T | -0.239 ± 0.31
L3S | 0.122 ± 0.21
L3R | -1.02 ± 0.38
E7G | -0.095 ± 0.083
E7A | 0.001 ± 0.083
E7C | -0.333 ± 0.16
E7I | -0.107 ± 0.34
E7F | -0.148 ± 0.19
